Data taken from the MegaScale stability set (Tsuboyama et al. 2023).

B1: 6YSE (parent)
chain: HERALMVNRLQKLTRMLRVHPDPKWKQEQQELIKRLK

Variants of: B1
Assay: folding stability dG (cDNA display proteolysis); higher = more stable
Conditions: PBS, room temperature

| Variant | folding stability dG [kcal/mol] |
| --- | --- |
| HERALMVNRLQKLTRMLRVHPDPKRKQEQQELIKRLK [W25R] | 0.719 |
| HERALMVNRLQKLTRMLRVHPDPKTKQEQQELIKRLK [W25T] | 0.731 |
| HERALMVNRLQKLTRMLRVHPDPKQKQEQQELIKRLK [W25Q] | 0.755 |
| HERALMVNRLQKLTRMLRVHPDPKLKQEQQELIKRLK [W25L] | 1.97 |
| HERALMVNRLQKLTRMLRVHPDPKWKQEQQELIKKLK [R35K] | 1.51 |
| HERALMVNRLQKLTRMLRVHPDPKWKQEQQELIKLLK [R35L] | 1.73 |
| HERALMVNRLQKLTRMLRVHPDPKWKQEQQELIKSLK [R35S] | 0.493 |
| HERALMVNRLQKLTRMLRVHADPKWKQEQQELIKRLK [P21A] | 1.18 |
| HERALMVNRLQKLTRMLRVHWDPKWKQEQQELIKRLK [P21W] | 2.02 |
| HERALMVNRLQKLTRMLRVHLDPKWKQEQQELIKRLK [P21L] | 0.688 |
| HERALMVKRLQKLTRMLRVHPDPKWKQEQQELIKRLK [N8K] | 2.4 |
| HERALMVQRLQKLTRMLRVHPDPKWKQEQQELIKRLK [N8Q] | 2.12 |
| HERALMVYRLQKLTRMLRVHPDPKWKQEQQELIKRLK [N8Y] | 1.38 |
| HERALMVNRLQKLTQMLRVHPDPKWKQEQQELIKRLK [R15Q] | 1.48 |
| HERALMVNRLQKLTRMLRVHPDPKWKQEQQELIDRLK [K34D] | 0.366 |
| HERALMVNRLQKLTRMLRVHPDPKWKQEQQELIGRLK [K34G] | 0.802 |
| HERALMVNRLQKLTRMLRVHPDMKWKQEQQELIKRLK [P23M] | 0.09 |
| HERALMVNRLQKLTRMLRVHPDHKWKQEQQELIKRLK [P23H] | 0.269 |
| HERPLMVNRLQKLTRMLRVHPDPKWKQEQQELIKRLK [A4P] | 0.222 |
| HERYLMVNRLQKLTRMLRVHPDPKWKQEQQELIKRLK [A4Y] | 1.4 |
| HERELMVNRLQKLTRMLRVHPDPKWKQEQQELIKRLK [A4E] | 1.35 |
| HERGLMVNRLQKLTRMLRVHPDPKWKQEQQELIKRLK [A4G] | 0.783 |
| HERALMVNRLQKLTRMLRVHPDPKWKQEQQELIKRLW [K37W] | 1.43 |

| Variant | folding stability dG [kcal/mol] |
| --- | --- |
| HERALMVNRLQKLTRMLRVHPDPKWKQEQQELHKRLK [I33H] | -0.268 |
| HERALMVNRLQKLTRMLRVHPDPKWKQEQQELNKRLK [I33N] | 0.375 |
| HERALMVNRLQKLTRMLRVHPDPKWKQEQQELYKRLK [I33Y] | 0.751 |
| HERALMVNRLQKLTRMLRVHPDPKWKQEQQELGKRLK [I33G] | -0.702 |
| HERALMVNRLQKLTRMLRVHPDPKWKIEQQELIKRLK [Q27I] | 1.22 |
| HERALMVNRLQKLTRMLRVHPDPKWKSEQQELIKRLK [Q27S] | 1.04 |
| HERALMVNRLQKLTRMLRVHPDPKWKKEQQELIKRLK [Q27K] | 1.46 |
| HERALMENRLQKLTRMLRVHPDPKWKQEQQELIKRLK [V7E] | 1.11 |
| HERALMMNRLQKLTRMLRVHPDPKWKQEQQELIKRLK [V7M] | 1.59 |
| HERALMVNRLQKLTRMLRVHPDPKWKQEQIELIKRLK [Q30I] | 1.37 |
| HERALMVNRLQKLTRMLRVHPDPKWMQEQQELIKRLK [K26M] | 1.29 |
| HERALMVNRLQKLTRMLRVHPDPKWYQEQQELIKRLK [K26Y] | 1.17 |
| HERALMVNRLQKLTRMLRVHPDPKWCQEQQELIKRLK [K26C] | 0.732 |
| HERALMVNRLQKLTRMLRVHPDPKWSQEQQELIKRLK [K26S] | 0.461 |
| HERALMVNRLQYLTRMLRVHPDPKWKQEQQELIKRLK [K12Y] | 2.31 |
| HERALMVNRLQKLTRMLRVHPGPKWKQEQQELIKRLK [D22G] | 0.117 |
| HERALMVNRLQKLTRMLRSHPDPKWKQEQQELIKRLK [V19S] | 1.23 |
| HERALMVNRLQKLTRMLRTHPDPKWKQEQQELIKRLK [V19T] | 1.37 |
| HERALMVNRLQKLTRMLRVHPDPKWKQEFQELIKRLK [Q29F] | 1.53 |
| HERALMVNRLQKLTRMLRVHPDPKWKQESQELIKRLK [Q29S] | 0.65 |
| HERALMVNRLQKLTRMLRVHPDPKWKQETQELIKRLK [Q29T] | 0.863 |
| HERALMVNRLQKLTRMLRVHPDPKWKQEQQEYIKRLK [L32Y] | -0.525 |
| HSRALMVNRLQKLTRMLRVHPDPKWKQEQQELIKRLK [E2S] | 1.09 |

| Variant | folding stability dG [kcal/mol] |
| --- | --- |
| HERALMVNRLQKLTRMLWVHPDPKWKQEQQELIKRLK [R18W] | 0.417 |
| HERALMVNRLQKLTRMLRVNPDPKWKQEQQELIKRLK [H20N] | 1.26 |
| HERALMVNRLQKLTRMLRVGPDPKWKQEQQELIKRLK [H20G] | -0.186 |
| HERALMVNRLQKLTRMLRVSPDPKWKQEQQELIKRLK [H20S] | 1.26 |
| HERALMVNRLQKLTRMLRVYPDPKWKQEQQELIKRLK [H20Y] | 1.47 |
| HERALMVNRLQKLTRKLRVHPDPKWKQEQQELIKRLK [M16K] | 0.733 |
| HERALMVNALQKLTRMLRVHPDPKWKQEQQELIKRLK [R9A] | -0.164 |
| HERALMVNGLQKLTRMLRVHPDPKWKQEQQELIKRLK [R9G] | -0.612 |
| HERALMVNILQKLTRMLRVHPDPKWKQEQQELIKRLK [R9I] | 0.734 |
| HERALMVNKLQKLTRMLRVHPDPKWKQEQQELIKRLK [R9K] | 0.551 |
| HERALMVNFLQKLTRMLRVHPDPKWKQEQQELIKRLK [R9F] | 0.77 |
| HERALMVNRLQKLDRMLRVHPDPKWKQEQQELIKRLK [T14D] | 0.505 |
| HERALMVNRLQKLMRMLRVHPDPKWKQEQQELIKRLK [T14M] | 1.21 |
| HERAVMVNRLQKLTRMLRVHPDPKWKQEQQELIKRLK [L5V] | 1.29 |
| HERAIMVNRLQKLTRMLRVHPDPKWKQEQQELIKRLK [L5I] | 1.41 |
| HESALMVNRLQKLTRMLRVHPDPKWKQEQQELIKRLK [R3S] | 0.487 |
| HEWALMVNRLQKLTRMLRVHPDPKWKQEQQELIKRLK [R3W] | 1.59 |
| NERALMVNRLQKLTRMLRVHPDPKWKQEQQELIKRLK [H1N] | 1.45 |
| HERALMVNRLQKLTRMLRVHPDPEWKQEQQELIKRLK [K24E] | 1.01 |
| HERALMVNRLQKLTRMLRVHPDPKWKQTQQELIKRLK [E28T] | -0.079 |
| HERALMVNRLQKLTRMLRVHPDPKWKQFQQELIKRLK [E28F] | 0.366 |
